# Laboratory results taken from patent US12564623B2, “Methods and compositions for treating cancer” (The University of Chicago, priority 2017, dated 2026).
# “Also recorded” adds a separate entry of the source.
# B1: neutrophil elastase (protein, listed as Homo sapiens)
# chain: MTLGRRLACLFLACVLPALLLGGTALASEIVGGRRARPHAWPFMVSLQLRGGHFCGATLIAPNFVMSAAHCVANVNVRAVRVVLGAHNLSRREPTRQVFAVQRIFENGYDPVNLLNDIVILQLNGSATINANVQVAQLPAQGRRLGNGVQCLAMGWGLLGRNRGIASVLQELNVTVVTSLCRRSNVCTLVRGRQAGVCFGDSGSPLVCNGLIHGIASFVRGGCASGLYPDAFAPVAQFVNWIDSIIQRSEDNPCPHPRDPDPASRTH
# notes: purified native ELANE
# Tests used:
# Healthy non-cancer cells = experiment: Killing program signaling in non-cancer cells; assay type: cell-based, Human and mouse; conditions: 50 nM
# Experimental: (FIG. 11A) Healthy non-cancer cells were treated with ELANE (50 nM) for 4 hrs, and phosphorylated and total ERK, NFKB, and JNK were quantified by immunoblotting. Immunoblots for BMDMs are shown as an example. (FIG. 11B) Cells were treated with various doses of ELANE for 1 hr and mitochondrial ROS was measured by flow cytometry using CM-H2DCFDA dye. (FIG. 11C) Cells were treated with ELANE (50 nM) for 8 hrs, and full length and cleaved CASP3 (c-CASP3) and cleaved PARP (c-PARP) were quantified by immnoblotting. Immunoblots for BMDMs are shown as an example.
# The ELANE-induced killing program is not observed in non-cancer cells. Human and mouse non-cancer cells were treated with ELANE and signaling pathways associated with cancer cell death were assessed. Cells were treated with ELANE (50 nM) for 4 hrs, and phosphorylated and total ERK, NFKB, and JNK were quantified by western blotting. Cells were treated with various doses of ELANE for 1 hr and mitochondrial ROS was measured by flow cytometry using CM-H2DCFDA dye. Cells were treated with ELANE (50 nM) for 8 hrs, and full length and cleaved CASP3 and PARP were quantified by western blotting.
# Cancer cells = experiment: Killing program signaling in cancer cells (ERK, NFKB, JNK, ROS, H2AX, CASP3, PARP); assay type: cell-based, Human and mouse; conditions: 50 nM
# Experimental: (FIG. 10A) Cancer cells were treated with ELANE (50 nM) for 4 hrs, and phosphorylated and total ERK, NFKB, and JNK were quantified by western blotting. Immunoblots for E0771 cancer cells are shown as an example. (FIG. 10B) Cancer cells were treated with various doses of ELANE for 1 hr and mitochondrial ROS was measured by flow cytometry using CM-H2DCFDA dye. (FIG. 10C) Cancer cells were treated with ELANE (50 nM) and DNA damage was assessed by immunoblotting for phospho-(γH2AX) and total H2AX. Immunoblots for A549 cancer cells are shown as an example. (FIG. 10D) Cells were treated with ELANE (50 nM) for 8 hrs, and full length and cleaved CASP3 (c-CASP3) and cleaved PARP (c-PARP) were quantified by immunoblotting. Immunoblots for LLC1 cancer cells are shown as an example. *, p<0.05, Student's t-test.
# ELANE induces a robust killing program in a variety of cancer cells. Human and mouse cancer cells were treated with ELANE and signaling pathways associated with cancer cell death were assessed. Cells were treated with ELANE (50 nM) for 4 hrs, and phosphorylated and total ERK, NFKB, and JNK were quantified by western blotting. Cells were treated with various doses of ELANE for 1 hr and mitochondrial ROS was measured by flow cytometry using CM-H2DCFDA dye. Cells were treated with ELANE (50 nM) and DNA damage was assessed by western blot for phospho-(γH2AX) and total H2AX. […]
# tumors = experiment: Tumor apoptosis markers and CD95 staining after intratumoral delivery; assay type: in vivo, mice
# Experimental: (FIG. 16A) MDA-MB-231, A549, or MEL888 (xenograft model) cells were injected into athymic nude mice; M1 or 4195 tumors (TNBC PDX models) were propagated in SCID mice; and E0771, LLC1, or B16F10 cells (syngeneic models) were injected into C57BL/6 mice. Once tumors reached ˜100 mm^3, ELANE (11.6 μg), or PMSF-ELANE (11.6 μg) were delivered intratumorally once/day for 5 days. Tumors were isolated on day 6, formalin fixed, and examined by immunohistochemistry or immunofluorescence staining for TUNEL, cleaved-PARP (cPARP), and cleaved CASP3 (cCASP3). Images were taken under 40×. (FIG. 16B) Tumor sections were stained with N-terminal (N-CD95) and C-terminal (C-CD95) specific anti-CD95 antibodies, followed by secondary antibody staining (Alex fluor 488 and 594 for C-CD95 and N-CD95 respectively). Fluorescence intensity quantification was performed on 3-4 areas/mouse.
# human blood Tcells = experiment: Apoptosis of human blood T cells in vitro; assay type: cell-based
# Experimental: The efficiency by which these proteases cleaved CD95 was well correlated with their ability to kill cancer cells. Thus, targeting CD95 for degradation offers three important advantages over the FASL and siRNA/shRNA approaches described above. First, unlike the resistance reported with FASL, the inventors have shown that cancer cells are incapable of becoming resistant to this degradative pathway in vitro and in vivo. […] In fact, when tumor bearing mice were treated with ELANE, tumor and splenic T-cells numbers were elevated.
molecule,measurement,setting,value
B1,killing program in healthy non-cancer cells,Healthy non-cancer cells,does not induce a robust killing program in healthy non-cancer cells
same,killing program in cancer cells,Cancer cells,induces a robust killing program in cancer cells
same,C-CD95 levels in tumors,"tumors; 11.6 μg intratumorally once/day for 5 days, day 6",attenuates C-CD95 levels in vivo
same,apoptosis in tumors,"tumors; intratumoral delivery, mouse cancer models",induces cancer cell apoptosis; also recorded: induced widespread apoptosis
same,apoptosis of human blood T cells,human blood Tcells,did not induce apoptosis in vitro
